In patent US20260242465A1 (CELSIUS THERAPEUTICS, published 2026):

Columns and labels:
[1] = target: T1, recombinant hTREM1-chFc1 (human); assay: bio-layer interferometry blocking assay: hTREM1-chFc1 on AHC biosensors, antibody titrated, then PGLYRP1 (blocked ligand, 971 nM per paragraph 383)
T1 construct: the whole entry is named; Captured on Octet AHC biosensors; also called immobilized TREM1-ECD; immobilized TREM1 protein
Description: (§1) The data was fitted with the sigmoidal (four-parameter) nonlinear regression equation. […] The data is from a single experiment that is representative of three replicates.
(§2) Briefly, recombinant hTREM1-chFc1 was immobilized on Octet AHC biosensors and then blocked with 100 μg/mL hIgG1-Fc. […] The incubation time between mAb and immobilized TREM1-ECD is limited to 300 s, thus limiting the amount of antibody that can bind to the immobilized TREM1, particularly at the sub-saturation concentrations.

[2] = target: T2, hFcγRIIIA176V (human, UniProt P08637 17-208); assay: SPR (Biacore T200), single-cycle kinetics; replicate 1
T2 construct: Bought; also called FcγRIIIA (176V polymorphism); not shown: His tag
T2 sequence (P08637 17-208 F176V): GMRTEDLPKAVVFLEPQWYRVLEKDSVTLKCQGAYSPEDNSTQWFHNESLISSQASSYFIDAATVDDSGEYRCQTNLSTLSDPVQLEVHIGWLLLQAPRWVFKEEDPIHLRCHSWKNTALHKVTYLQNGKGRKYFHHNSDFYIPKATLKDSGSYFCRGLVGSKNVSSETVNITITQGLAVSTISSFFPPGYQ
Text: (§3) Human Fc receptors, FcγRI, FcγRII (both 167R and 167H polymorphisms), FcγRIIB, FcγRIIIA (both 176F and 176V polymorphisms) and FcγRIIIB were obtained from Sino Biological (Beijing, China). FcγR were captured on a CM5 sensor chip pre-coupled using a His capture kit (Cytiva, Uppsala, Sweden) using standard amine chemistry.
(§4) At the start of each cycle, His-tagged Fcγ receptors diluted in HBS-P+ (Cytiva, Uppsala, Sweden) were loaded to a specific RU level. A five point, three-fold dilution range of test antibody without regeneration between each concentration was used for each receptor tested. Antibodies were passed over the chip in increasing concentrations followed by a single dissociation step. Following dissociation, the chip was regenerated with two injections of glycine (pH 1.5).

[3] = target: T3, hFcγRIIA167R (human, UniProt P12318 34-218); assay: as above
T3 construct: also called FcγRII (167R polymorphism); not shown: His tag
T3 sequence (looked up): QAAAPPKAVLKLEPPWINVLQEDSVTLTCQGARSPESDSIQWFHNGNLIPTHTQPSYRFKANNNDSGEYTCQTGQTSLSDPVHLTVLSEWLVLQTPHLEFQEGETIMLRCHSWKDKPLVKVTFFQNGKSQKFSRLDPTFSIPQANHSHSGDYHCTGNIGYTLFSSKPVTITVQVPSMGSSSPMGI
Text: as §3, §4

[4] = target: T4, purified human C1q (human, UniProt P02745 23-245; P02746 28-253; P02747 29-245); assay: ELISA; antibody coated in serial dilutions, human C1q at 5 µg/ml, anti-C1q-HRP
T4 construct: Purified from HyCult Biotech; also called complement protein C1q
T4 sequence (P02745 23-245 limits assumed, chain 1 of 3): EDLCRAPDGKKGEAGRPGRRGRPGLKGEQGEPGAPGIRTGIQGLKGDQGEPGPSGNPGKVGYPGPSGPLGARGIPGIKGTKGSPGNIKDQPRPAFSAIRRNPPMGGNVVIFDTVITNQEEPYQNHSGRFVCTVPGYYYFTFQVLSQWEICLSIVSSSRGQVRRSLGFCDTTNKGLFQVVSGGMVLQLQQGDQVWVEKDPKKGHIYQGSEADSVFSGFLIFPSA
T4 sequence (P02746 28-253 limits assumed, chain 2 of 3): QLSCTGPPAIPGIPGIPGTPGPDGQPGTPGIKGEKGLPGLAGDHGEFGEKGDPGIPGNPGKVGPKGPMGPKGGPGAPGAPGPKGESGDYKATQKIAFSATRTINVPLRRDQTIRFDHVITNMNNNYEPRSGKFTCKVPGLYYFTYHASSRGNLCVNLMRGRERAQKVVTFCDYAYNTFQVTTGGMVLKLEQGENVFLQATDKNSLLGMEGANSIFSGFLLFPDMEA
T4 sequence (P02747 29-245 limits assumed, chain 3 of 3): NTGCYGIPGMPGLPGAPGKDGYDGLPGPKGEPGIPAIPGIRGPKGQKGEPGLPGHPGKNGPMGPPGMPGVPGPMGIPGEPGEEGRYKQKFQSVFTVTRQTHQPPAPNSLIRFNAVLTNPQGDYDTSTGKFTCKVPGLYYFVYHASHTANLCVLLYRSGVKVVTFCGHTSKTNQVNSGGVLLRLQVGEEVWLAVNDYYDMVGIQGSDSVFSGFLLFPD
Description: Plates were blocked with IX PBS (pH 7.4) with 2% w/v BSA. After blocking, purified human C1q (HyCult Biotech, Wayne, Pennsylvania) at 5 μg/ml was added to the ELISA plates for binding, Plates were washed an anti-C1q-HRP (Abcam, Cambridge, UK) was diluted 1:1000 in blocking buffer and added to the ELISA plates for detection. After washing, TMB microwell peroxidase substrate (Life Technologies) was added for detection. The reaction was stopped with TMB stop solution (VWR, Lutterworth, Leicestershire) after 5 minutes. Absorbance was read at 450 nm using a SpectraMax M3 plate reader (Molecular Devices, Wokingham, UK).

[5] = target: T5, recombinant monovalent cynomolgus monkey TREM1-ECD (cynomolgus monkey); assay: BLI; antibody on AHC sensor, monovalent TREM1-ECD in solution
T5 construct: whole entry named; also called cyno TREM1-ECD
T5 chain: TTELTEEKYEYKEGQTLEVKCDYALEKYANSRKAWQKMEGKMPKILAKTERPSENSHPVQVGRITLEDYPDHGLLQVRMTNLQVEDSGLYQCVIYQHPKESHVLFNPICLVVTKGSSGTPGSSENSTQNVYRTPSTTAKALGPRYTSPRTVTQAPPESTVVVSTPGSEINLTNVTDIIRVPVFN
Text: (§5) Sensors were monitored to establish a baseline.
(§6) The coefficient of determination of the 1:1 model fit to the BLI sensorgrams is represented by the R\hat{ }2 value. Data for human and cynomolgus monkey represents averages across three replicates. Data for pig, dog, rabbit, rat, and mouse represents averages across two replicates.

[6] = target: T6, recombinant monovalent rabbit TREM1-ECD (rabbit); assay: as above
T6 construct: extracellular domain
Text: as §5, §6

[7] = target: T7, recombinant monovalent pig TREM1-ECD (pig (Sus scrofa), UniProt Q6TYI6 21-210); assay: as above
T7 construct: whole entry named
T7 sequence: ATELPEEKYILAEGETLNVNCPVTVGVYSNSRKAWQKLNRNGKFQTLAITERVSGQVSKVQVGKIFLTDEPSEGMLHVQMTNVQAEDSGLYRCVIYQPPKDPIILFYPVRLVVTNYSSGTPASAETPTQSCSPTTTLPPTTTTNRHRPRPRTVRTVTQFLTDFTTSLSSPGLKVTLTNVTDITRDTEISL
Text: as §5, §6

[8] = target: T8, recombinant monovalent dog TREM1-ECD (dog (Canis familiaris)); assay: as above
T8 construct: whole entry named
T8 chain: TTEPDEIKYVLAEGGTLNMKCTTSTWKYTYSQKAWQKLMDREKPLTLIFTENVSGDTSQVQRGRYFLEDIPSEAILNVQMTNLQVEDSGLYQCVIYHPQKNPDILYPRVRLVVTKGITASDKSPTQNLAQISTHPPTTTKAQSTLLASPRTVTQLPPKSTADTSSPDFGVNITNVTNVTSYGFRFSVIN
Text: as §5, §6

[9] = target: T9, recombinant monovalent mouse TREM1-ECD (mouse, UniProt Q9JKE2 21-202); assay: as above
T9 construct: whole entry named
T9 sequence: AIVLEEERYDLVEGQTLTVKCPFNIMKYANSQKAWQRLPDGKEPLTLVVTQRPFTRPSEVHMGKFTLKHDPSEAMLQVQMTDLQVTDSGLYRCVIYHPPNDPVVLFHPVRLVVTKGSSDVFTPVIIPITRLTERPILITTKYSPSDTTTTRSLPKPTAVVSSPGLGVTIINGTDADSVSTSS
Text: as §5, §6

[10] = target: T2, hFcγRIIIA176V; assay: SPR (Biacore T200), single-cycle kinetics; replicate 2
Text: as §3, §4

[11] = target: T3, hFcγRIIA167R; assay: as above
Text: as §3, §4

[12] = target: T2, hFcγRIIIA176V; assay: SPR (Biacore T200), single-cycle kinetics; His-tagged FcγR captured, antibody as analyte; replicate 2
Text: as §3, §4

[13] = target: T3, hFcγRIIA167R; assay: as above
Text: as §3, §4

[14] = target: T2, hFcγRIIIA176V; assay: SPR (Biacore T200), single-cycle kinetics; His-tagged FcγR captured, antibody as analyte; replicate 1
Text: as §3, §4

[15] = target: T3, hFcγRIIA167R; assay: as above
Text: as §3, §4

[16] = target: T10, cynomolgus monkey TREM1 on neutrophils (cynomolgus monkey); assay: flow cytometry of whole blood, free TREM1 on neutrophils (percent of baseline) in cynomolgus monkeys dosed IV once weekly for 14 weeks
T10 construct: Endogenous receptor on neutrophils of dosed animals (receptor occupancy by flow cytometry); also called free TREM1 receptors on neutrophils (cynomolgus)
T10 chain: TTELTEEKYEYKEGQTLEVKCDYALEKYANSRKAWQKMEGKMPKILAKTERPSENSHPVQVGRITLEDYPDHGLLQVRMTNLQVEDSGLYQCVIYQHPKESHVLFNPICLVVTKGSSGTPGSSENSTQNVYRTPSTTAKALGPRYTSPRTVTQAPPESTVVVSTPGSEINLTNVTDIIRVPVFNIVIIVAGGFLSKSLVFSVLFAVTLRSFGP

[17] = target: T11, human TREM2-ECD fused to an Fc domain (human, UniProt Q9NZC2 19-174); assay: bio-layer interferometry, TREM2-ECD-Fc immobilised on the sensor, antibody in solution, maximum response
T11 construct: extracellular domain; the text tells one result for TREM2-ECD, so they are written as one molecule; also called human TREM2-ECD (BioLegend, 786404 and R&D Systems, 1828-T2-050); not shown: Fc domain
T11 sequence (looked up): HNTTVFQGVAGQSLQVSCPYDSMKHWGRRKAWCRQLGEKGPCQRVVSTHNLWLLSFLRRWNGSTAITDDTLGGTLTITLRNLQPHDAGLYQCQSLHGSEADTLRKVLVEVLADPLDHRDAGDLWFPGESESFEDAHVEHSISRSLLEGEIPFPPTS
Description: In addition to TREM1, the TREM gene family also includes TREM2. […] Without wishing to be bound by any particular theory, TREM1 and TREM2 are thought to play opposing roles in modulating immune responses; see e.g., Sharif and Knapp, Immunobiology, 213(9-10):701-713 (2008). […] Briefly, 10 μg/mL TREM2-ECD fused to an Fc domain was immobilized on a sensor. Sensors were quenched and monitored to establish a baseline. […] The maximum BLI response was measured (FIG. 13).

[18] = target: T1, recombinant hTREM1-chFc1; assay: BLI competition; hTREM1-chFc1 on AHC biosensor, antibody titrated 200 to 0.012 nM for 300 s, then 971 nM PGLYRP1 (competitor: PGLYRP1)
Description: as §1, §2

[19] = target: T12, human TREM2 expressed on HEK293 cells (human, UniProt Q9NZC2 19-230); assay: polyspecificity assay; flow cytometry on transfected HEK293 cells
T12 construct: whole, on cells; Named member of the array of more than 6,000 human membrane proteins; also called TREM2 (membrane protein array)
T12 sequence (looked up): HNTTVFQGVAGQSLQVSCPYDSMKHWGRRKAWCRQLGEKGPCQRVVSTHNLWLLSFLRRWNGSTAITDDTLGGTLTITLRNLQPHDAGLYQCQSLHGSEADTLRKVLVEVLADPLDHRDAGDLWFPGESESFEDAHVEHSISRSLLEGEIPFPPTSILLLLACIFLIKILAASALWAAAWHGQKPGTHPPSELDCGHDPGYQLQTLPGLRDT
Text: Transient transfection was used to express an array of each of more than 6,000 human membrane proteins including TREM2 and other TREM family members on the surface of HEK293 cells. […] TMEM178A is an intracellular protein that localizes to the endoplasmic reticulum; see e.g., Decker et al., Proc. Natl. Acad. Sci., 112(51):15654-9 (2015).

T1 sequence (Q9NP99 21-205): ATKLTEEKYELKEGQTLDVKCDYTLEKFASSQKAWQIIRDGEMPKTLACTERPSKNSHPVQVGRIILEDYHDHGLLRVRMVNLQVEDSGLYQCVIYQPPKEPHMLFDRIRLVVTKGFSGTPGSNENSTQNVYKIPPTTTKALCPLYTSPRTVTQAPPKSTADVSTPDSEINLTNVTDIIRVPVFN

B1: anti-TREM1 antibody agent clone A (antibody, human IgG1, kappa)
heavy: EVQLVESGGVLVQPGGSLRLSCAASGITFSNSWMSWVRQAPGKGLEWVANIKQDGSEKYYVDSVKGRFTISRDNAKESLFLQMNSLRAEDTAVYYCARGGISTFDIWGQGTMVTVSSASTKGPSVFPLAPSSKSTSGGTAALGCLVKDYFPEPVTVSWNSGALTSGVHTFPAVLQSSGLYSLSSVVTVPSSSLGTQTYICNVNHKPSNTKVDKKVEPKSCDKTHTCPPCPAPPVAGPSVFLFPPKPKDTLMISRTPEVTCVVVDVSHEDPEVKFNWYVDGVEVHNAKTKPREEQYNSTYRVVSVLTVLHQDWLNGKEYKCKVSNKALPAPIEKTISKAKGQPREPQVYTLPPSRDELTKNQVSLTCLVKGFYPSDIAVEWESNGQPENNYKTTPPVLDSDGSFFLYSKLTVDKSRWQQGNVFSCSVMHEALHNHYTQKSLSLSPGK
light: not shown
notes: heavy chain carries the IgG1 constant region with PVAdelG, light chain is kappa; also called anti-TREM1 clone A; Anti-TREM1 Antibody Clone A
[1]
  IC50 (read off the curve): ~0.005 µM
[2]
  Ratio (against Trastuzumab; not defined): 0.05
[3]
  Ratio (against Trastuzumab; not defined): 0.33
[4]
  binding result: no binding
[5]
  Kd: 0.0019 µM
  Maximum BLI response: 0.343 nm
[6]
  Maximum BLI response: 0.005 nm
[7]
  Maximum BLI response: 0.013 nm
[8]
  Maximum BLI response: 0.006 nm
[9]
  Maximum BLI response: 0.005 nm
[10]
  Ratio (against Trastuzumab; not defined): 0.05
[11]
  Ratio (against Trastuzumab; not defined): 0.33
[12]
  Kd: 6.49 µM
[13]
  Kd: 28.3 µM
[14]
  Kd: 6.66 µM
[15]
  Kd: 28.4 µM
[16]
  binding result: binds
[17]
  binding result: no binding (tested: 3 ug/mL)
[18]
  IC50: 0.0045 µM
[19]
  binding result: no binding (tested: 5 µg/mL)
